Data as given in patent US20230148181A1, “ENZYME FOR THE CONVERSION OF CHLOROGENIC ACID INTO ISOCHLOROGENIC ACID” (UNIVERSITE DE LORRAINE, priority 2020, published 2023).

Tests used:
Assay type in all cases: biochemical
[1] = in vitro enzyme assay of purified recombinant IbGDSL (produced in N. benthamiana): conversion of CGA into 3,5-DCQ, UPLC-MS
Procedure: The in vitro enzyme assays are conducted on the purified recombinant enzyme produced in a plant system. After 6 days of co-culture, N. benthamiana leaves agro-infiltrated with the vector carrying the gene of interest, are harvested and ground in extraction buffer (20 mM sodium phosphate, 0.5 M NaCl, pH 7.4). The extract is then centrifuged and the supernatant containing all the soluble proteins including IbGDSL is recovered and sterilised by 0.2 μm filtration. Protein purification is then conducted according to the supplier's instructions on Nickel columns (HisTrap HP-GE HEALTHCARE). […]
Enzyme assays are performed in a 50 μl volume with 200-400 ng of the purified protein (that is a few μl). The optimal reaction pH will be determined using a polybuffer (0.1 M Tris/20 mM MES/0.1 M acetic acid) from which a pH range of 4 to 9 will be constructed. […]
3,5-DCQ quantification is done by measuring the area of the peak of a 3,5-DCQ standard at 330 nm. […] The contents of the other compounds (chlorogenic acid and the other DCQ isomers) are expressed as 3,5-DCQ equivalents. The content is calculated according to the following formula for a compound: […]
A pH range between 4 and 9 was established to determine the optimal pH for the conversion of CGA into 3,5-DCQ by virtue of IbGDSL. […] From the curve obtained it was determined that the optimal reaction pH is between 6 and 7 (FIG. 3A). […]

[2] = bioconversion of chlorogenic acid from green coffee (Coffea canephora) extract into 3,5-DCQ by IbGDSL from P. pastoris
Procedure: The bioconversion reaction of CGA into 3,5-DCQ was also carried out from a green coffee (Coffea canephora) extract whose composition is indicated in FIG. 7A. This green coffee extract, comprising a CGA concentration equivalent to 10 mM and bioconverted over a period of 50 hours, at 30° C. and pH 6, led to a new extract whose composition is shown in FIG. 7B. […] Furthermore, no other caffeic acid-containing substrate than chlorogenic acid is biotransformed as no decrease in peaks is observed except for that corresponding to CGA. Bioconversion of green coffee extract with IbGDSL increases the 3,5-DCQ content initially present in the extract 4.5-fold (200 mg/L at T0 and 900 mg at T50h) for a starting CGA concentration equivalent to 10 mM. Bioconversion of CGA into 3,5-DCQ from the green coffee extract was performed after 4 and 7 days, in order to analyse the effect of a reaction with GDSL taking place over a long period of time (FIG. 9). […] The concentration of the IbGDSL enzyme obtained by fermentation of P. pastoris accelerates the reaction speed of the conversion of CGA into 3,5-DCQ (FIG. 10). It is noticed that the same level of 3,5-DCQ concentration can be obtained for enzyme concentration factors of 10-, 20- and 37-fold after 60 h of bioconversion.

[3] = bioconversion of pure CGA into 3,5-DCQ by P. pastoris culture or supernatant expressing IbGDSL
Procedure: The bioconversion of CGA into 3,5-DCQ in vivo requires the establishment of a highly metabolically active P. pastoris culture. The yeasts are cultured in nutrient medium containing a 100 mM potassium phosphate buffer with a pH adjusted to pH 6.0. This allows the medium in which the enzyme obtained from the microbial cells and the substrate will be in contact, to be maintained at pH 6. After establishing an inoculum of 25 mL of yeast culture overnight at 30° C. under agitation of 250-300 rpm, this is used to inoculate a volume of 100-200 mL of nutrient medium in such a way as to obtain an OD600nm around 1. To this culture 0.5% methanol is added in order to initiate the production of IbGDSL. The addition of methanol is repeated every 24 hours to maintain the level of induction of protein production. […]
The first step of this experiment is to show whether the IbGDSL produced by P. pastoris is capable of converting CGA into 3,5-DCQ knowing that the original enzyme could potentially be glycosylated three-fold and that the glycan trees generated by P. pastoris are not comprised and organised in the same way as the plant glycan trees. These differences could directly influence the stability and prevent the proper activity of the enzyme. To do so, supernatants from two P. pastoris cultures, one transformed with the empty vector (negative control) and the other with the vector carrying the gene encoding IbGDSL were recovered after 3 days of methanol induction. These supernatants were incubated at pH 6.5 with 10 mM chlorogenic acid for 30 minutes at 36° C. The enzymatic reaction was then stopped with the addition of ethanol and analysed by UPLC-MS.
The second step of this experiment is to show whether the CGA directly added to the P. pastoris culture medium expressing the enzyme could be directly converted into 3,5-DCQ. The objective is to avoid the purification step of the enzyme if necessary.
[…] This experiment was conducted at 30° C., the ideal temperature for the culture and growth of the P. pastoris organism.

B1: IbGDSL: recombinant GDSL esterase/lipase enzyme of Ipomoea batatas (SEQ ID No. 1) converting chlorogenic acid into isochlorogenic acid (protein)
chain: MAAAAPSSSLLGVLMLLASIGYAAACYSAVFGFGDSLTDAGNLIRLEPDGTVPHMYFPPYGETYFDKPTGRCSDGRLIVDLIAQHYGLPLPPPSIPASLEGDKNRLRAGVNFAVVGSRALDAQFYEQRDIFDTVTNVSMTDQLNWFKELLPSLCSSPHDCKELLDGSLFVLGEFGGNDYTHSLLSGKGINVIRPFIPIVTRAIAQAVHELVELGARTVMIPSVLPLGCAASYLTYYPSPNPDDYDELGCLIWVNEMASYHNQLLQQQLAHVRELHPYANIVFADIYNAAMEVYQGPDTYGFSGGALRACCGGGGPYNFNTSAQCGNEGATACDNPSSYVNWDGYHLTEAAYQCITTGLLEGPYTYPRMKNLCRFDSRKTSRVAQI
modifications: Ipomoea batatas
**Q.** For B1, which “CGA concentration from which a slowing down of the enzyme activity is observed” value ([1]; pH 6.5, 30 minutes of incubation at 36° C.) is on record?
**A.** ≥ 10 mM

**Q.** And the “temperature of maximum conversion” value ([1]; purified IbGDSL, 10 mM CGA, pH 6.5, temperature range 15-45° C.)?
**A.** 37 °C

**Q.** And the “product specificity of the bioconversion” value ([2]; green coffee extract equivalent to 10 mM CGA, 50 hours, 30° C., pH 6)?
**A.** exclusively catalyses the formation of 3,5-DCQ

**Q.** And the “3,5-DCQ content at T50h” value ([2]; starting CGA equivalent to 10 mM, 30° C., pH 6)?
**A.** 900 mg

**Q.** And the “increase of the 3,5-DCQ content initially present in the extract” value ([2]; starting CGA equivalent to 10 mM, T50h versus T0)?
**A.** 4.5 fold

**Q.** And the “bioconversion yield of CGA into 3,5-DCQ” value ([3]; 10 mM CGA added directly to culture, pH 6, 30° C., 3 days, stoichiometric limit 50%)?
**A.** around 44%

**Q.** And the “maximum yield of conversion of pure CGA into 3,5-DCQ” value ([3]; after 50 hours of bioconversion, 5- and 7.5-mM starting CGA)?
**A.** 32%

**Q.** And the “3,5-DCQ content, maximum amounts” value ([3]; after 50 hours of bioconversion, starting pure CGA 7.5 and 9 mM)?
**A.** ~1.2 g/L

**Q.** What about the “activity of enzyme secreted in P. pastoris supernatant (3,5-DCQ peak)” value ([3]; supernatant after 3 days methanol induction, pH 6.5, 10 mM chlorogenic acid, 30 minutes at 36° C.) of the same molecule?
**A.** functional
